Results published in patent publication US20150105316A1 (TREVENA, published 2015).
Where no end group is shown, it is not given here. [ ]: non-standard residue; d: D form. The star is where a group is joined. Val(3-OH) = CC(C)(O)[C@H](N)C(=O)O; Tle = CC(C)(C)[C@H](N)C(=O)O; Ac6c = NC1(C(=O)O)CCCCC1; NHCH2tBu = CC(C)(C)CN*; Aib = CC(C)(N)C(=O)O; NHiPr = CC(C)N*; Sar = CNCC(=O)O

T1: human angiotensin 2 type 1 receptor (human, UniProt P30556 1-359)
T1 sequence (looked up): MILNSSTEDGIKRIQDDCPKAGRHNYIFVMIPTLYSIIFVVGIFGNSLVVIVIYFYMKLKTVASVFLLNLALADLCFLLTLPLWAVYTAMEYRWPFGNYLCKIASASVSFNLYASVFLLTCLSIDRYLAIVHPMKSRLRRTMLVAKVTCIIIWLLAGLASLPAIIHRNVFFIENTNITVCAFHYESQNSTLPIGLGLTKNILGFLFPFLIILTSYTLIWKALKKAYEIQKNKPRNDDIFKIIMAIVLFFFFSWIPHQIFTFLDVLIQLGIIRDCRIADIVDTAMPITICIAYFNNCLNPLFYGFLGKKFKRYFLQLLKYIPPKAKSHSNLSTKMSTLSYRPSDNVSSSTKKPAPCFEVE

T2: rat angiotensin 2 type 1 receptor (rat, UniProt P25095 1-359)
T2 sequence (looked up): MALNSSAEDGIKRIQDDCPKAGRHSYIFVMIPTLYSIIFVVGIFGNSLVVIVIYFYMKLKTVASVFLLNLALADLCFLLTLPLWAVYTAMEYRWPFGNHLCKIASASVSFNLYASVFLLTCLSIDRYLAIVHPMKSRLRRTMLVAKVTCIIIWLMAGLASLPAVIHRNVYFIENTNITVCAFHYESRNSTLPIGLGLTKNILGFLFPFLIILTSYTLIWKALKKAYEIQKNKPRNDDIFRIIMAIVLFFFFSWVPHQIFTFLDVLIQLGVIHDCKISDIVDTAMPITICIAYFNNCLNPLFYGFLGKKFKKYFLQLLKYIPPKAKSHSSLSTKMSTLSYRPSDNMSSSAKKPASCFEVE


Legend:
Test in all cases: cell-based or functional assay
[1] = biological target: T1, human angiotensin 2 type 1 receptor
[2] = biological target: T2, rat angiotensin 2 type 1 receptor
[3] = biological target: T1, human angiotensin 2 type 1 receptor; remark: listed apart in the source
[4] = biological target: T2, rat angiotensin 2 type 1 receptor; remark: listed apart in the source

Binder	beta-arrestin2 assay EC50 [1] [nM]	beta-arrestin2 assay Span [1]	beta-arrestin2 assay pEC50 [1]	beta-arrestin2 assay EC50 [2] [nM]	beta-arrestin2 assay Span [2]	beta-arrestin2 assay pEC50 [2]	IP1 G-protein assay EC50 [3] [nM]	IP1 G-protein assay Span [3]	IP1 G-protein assay pEC50 [3]	IP1 G-protein assay EC50 [4] [nM]	IP1 G-protein assay Span [4]	IP1 G-protein assay pEC50 [4]
[Sar]RVY[Ac6c]HP[Val(3-OH)] [SEQ ID NO: 31 (Sar-Arg-Val-Tyr-cyHex-His-Pro-AA03)]	> 3.2	< 101	< 8.5	> 3.2	< 105	< 8.5	–	–	–	–	–	–
[Sar]RVY[Tle]HPV [SEQ ID NO: 29 (Sar-Arg-Val-Tyr-AA02-His-Pro-Val)]	> 3.2	< 101	< 8.5	> 3.2	< 105	< 8.5	–	–	–	–	–	–
[Sar]RVY[Ac6c]HP-NHiPr [SEQ ID NO: 46 (Sar-Arg-Val-Tyr-cyHex-His-Pro-NH-i-Pr)]	> 3.2	< 101	< 8.5	> 3.2	< 105	< 8.5	> 1.3	< 103	< 9.2	–	–	–
[Sar]RVY[Aib]HPV [SEQ ID NO: 33 (Sar-Arg-Val-Tyr-AA01-His-Pro-Val)]	> 3.2	< 101	< 8.5	> 3.2	< 105	< 8.5	> 1.3	< 103	< 9.2	–	–	–
[Sar]RVY[Ac6c]HPH [SEQ ID NO: 37 (Sar-Arg-Val-Tyr-cyHex-His-Pro-His)]	> 3.2	< 101	< 8.5	> 3.2	< 105	< 8.5	–	–	–	> 0.6	< 104	< 9.2
[Sar]RVY[Ac6c]HPR [SEQ ID NO: 42 (Sar-Arg-Val-Tyr-cyHex-His-Pro-Arg)]	> 3.2	< 101	< 8.5	> 3.2	< 105	< 8.5	> 1.3	< 103	< 9.2	–	–	–
[Sar]RVY[Ac6c]HP[Aib] [SEQ ID NO: 35 (Sar-Arg-Val-Tyr-cyHex-His-Pro-AA01)]	> 3.2	< 101	< 8.5	> 3.2	< 105	< 8.5	–	–	–	–	–	–
[Sar]RVY[Ac6c]HPK [SEQ ID NO: 50 (Sar-Arg-Val-Tyr-cyHex-His-Pro-Lys)]	> 3.2	< 101	< 8.5	> 3.2	< 105	< 8.5	–	–	–	–	–	–
[Sar]KVY[Ac6c]HPA [SEQ ID NO: 51 (Sar-Lys-Val-Tyr-cyHex-His-Pro-Ala)]	> 3.2	< 101	< 8.5	> 3.2	< 105	< 8.5	> 1.3	< 103	< 9.2	–	–	–
[Sar]RVY[Ac6c]HPD [SEQ ID NO: 44 (Sar-Arg-Val-Tyr-cyHex-His-Pro-Asp)]	> 3.2	< 101	< 8.5	> 3.2	< 105	< 8.5	–	–	–	> 0.6	< 104	< 9.2
[Sar]RVY[Ac6c]HPN [SEQ ID NO: 36 (Sar-Arg-Val-Tyr-cyHex-His-Pro-Asn)]	> 3.2	< 101	< 8.5	> 3.2	< 105	< 8.5	–	–	–	–	–	–
[Sar]RVY[Ac6c]HP-NHEt [SEQ ID NO: 48 (Sar-Arg-Val-Tyr-cyHex-His-Pro-NH-ethyl)]	> 3.2	< 101	< 8.5	> 3.2	< 105	< 8.5	–	–	–	–	–	–
[Sar]RVY[Ac6c]HPG [SEQ ID NO: 32 (Sar-Arg-Val-Tyr-cyHex-His-Pro-Gly)]	> 3.2	< 101	< 8.5	> 3.2	< 105	< 8.5	–	–	–	–	–	–
[Sar]RVYPHPA [SEQ ID NO: 1 (Sar-Arg-Val-Tyr-Pro-His-Pro-Ala)]	> 3.2	< 101	< 8.5	> 3.2	< 105	< 8.5	> 10000	–	> 9.2	> 0.6	< 104	< 9.2
[Sar]RVY[Ac6c]HP-NHMe [SEQ ID NO: 49 (Sar-Arg-Val-Tyr-cyHex-His-Pro-NH-methyl)]	> 3.2	< 101	< 8.5	> 3.2	< 105	< 8.5	–	–	–	–	–	–
[Sar]RV[dC]IHC[dA] (not fully specified; printed as Sar-Arg-Val-D-Cys-Ile-His-Cys-D-Ala; cysteine pairing not given here) [SEQ ID NO: 52 (Sar-Arg-Val-D-Cys-Ile-His-Cys-D-Ala)]	> 3.2	< 101	< 8.5	> 3.2	< 105	< 8.5	–	–	–	–	–	–
[Sar]RVY[Ac6c]HP-NHCH2tBu [SEQ ID NO: 47 (Sar-Arg-Val-Tyr-cyHex-His-Pro-NH-neopentyl)]	> 3.2	< 101	< 8.5	–	–	–	–	–	–	–	–	–
[Sar]RVY[Ac6c]HPV [SEQ ID NO: 13 (Sar-Arg-Val-Tyr-cyHex-His-Pro-Val)]	–	–	–	> 3.2	< 105	< 8.5	> 1.3	–	> 9.2	> 0.6	–	> 9.2
[Sar]RVY[Tle]HPT [SEQ ID NO: 30 (Sar-Arg-Val-Tyr-AA02-His-Pro-Thr)]	> 3.2	< 101	< 8.5	> 3.2	< 105	< 8.5	–	–	–	–	–	–
[Sar]RVYXHPT (not fully specified (residue 5); printed as Sar-Arg-Val-Tyr-AA01-His-Pro-Thr) [SEQ ID NO: 40 (Sar-Arg-Val-Tyr-AA01-His-Pro-Thr)]	> 3.2	< 101	< 8.5	> 3.2	< 105	< 8.5	–	–	–	–	–	–
[Sar]RVY[Ac6c]HPE [SEQ ID NO: 43 (Sar-Arg-Val-Tyr-cyHex-His-Pro-Glu)]	> 3.2	< 101	< 8.5	> 3.2	< 105	< 8.5	–	–	–	–	–	–
[Sar]RVY[Ac6c]HP [SEQ ID NO: 41 (Sar-Arg-Val-Tyr-cyHex-His-Pro)]	> 3.2	< 101	< 8.5	> 3.2	< 105	< 8.5	–	–	–	–	–	–
XRVYXHPA (not fully specified; X1 Sar; X5 NMeIle) [SEQ ID NO: 58 (Sar-Arg-Val-Tyr-NMeIle-His-Pro-Ala)]	–	< 101	–	–	< 105	–	–	–	–	> 0.6	< 104	< 9.2
[Sar]RVY[Ac6c]HPC [SEQ ID NO: 34 (Sar-Arg-Val-Tyr-cyHex-His-Pro-Cys)]	> 3.2	< 101	< 8.5	> 3.2	< 105	< 8.5	–	–	–	–	–	–
